From paper PMC3294036
pKd: −log10 of the molar value. Several values for one entry are separate records, joined by “and”; a condition that tells them apart may be missing. Equal entries are not always repeated.

What was measured:
Assay in all cases: FRET or BRET
[1] = target: AKAP79-CFP I338P variant (PPAIIIT), full-length (human) (UniProt P24588)
[2] = target: AKAP79-CFP, wildtype, full-length (human) (UniProt P24588)
[3] = target: ATTO425-AKAP79(333–408), wildtype (PIAIIIT) (human) (UniProt P24588)
[4] = target: ATTO425-AKAP79(333–408) I338P variant (PPAIIIT) (human) (UniProt P24588)
ATTO425-AKAP79(333–408) I338P variant (PPAIIIT) (human), sequence (P24588 333-408 I338P): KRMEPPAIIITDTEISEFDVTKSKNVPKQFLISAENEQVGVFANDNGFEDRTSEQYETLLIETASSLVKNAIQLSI

ATTO425-AKAP79(333–408), wildtype (PIAIIIT) (human), sequence (P24588 333-408): as the sequence (P24588 333-408 I338P) above, with P6I counted along it
AKAP79-CFP, wildtype, full-length (human), sequence (P24588 whole entry): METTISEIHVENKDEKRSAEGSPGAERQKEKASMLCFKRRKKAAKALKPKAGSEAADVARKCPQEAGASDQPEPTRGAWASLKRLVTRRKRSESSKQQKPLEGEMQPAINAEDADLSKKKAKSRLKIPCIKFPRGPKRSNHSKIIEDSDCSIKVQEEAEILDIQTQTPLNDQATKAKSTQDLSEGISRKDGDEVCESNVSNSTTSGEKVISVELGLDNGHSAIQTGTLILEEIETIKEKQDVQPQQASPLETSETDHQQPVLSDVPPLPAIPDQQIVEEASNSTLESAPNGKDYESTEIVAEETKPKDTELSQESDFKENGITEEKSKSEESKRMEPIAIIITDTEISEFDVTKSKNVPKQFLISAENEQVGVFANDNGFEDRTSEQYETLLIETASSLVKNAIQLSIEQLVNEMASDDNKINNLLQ
AKAP79-CFP I338P variant (PPAIIIT), full-length (human), sequence (P24588 whole entry I338P): as the sequence (P24588 whole entry) above, with I338P counted along it

“CNAα-YFP (from UniProt Q08209 1-521) (enzyme)” gave a corrected YFP/CFP fluorescence intensity ratio (treated as 1:1 complex) [1] of 8.1 and a corrected YFP/CFP fluorescence intensity ratio (treated as 2:1 complex) [1] of 7.1.

“CNAα-YFP (from UniProt Q08209 1-521) (enzyme; other documents disagree on this pair)” showed a corrected YFP/CFP fluorescence intensity ratio (treated as 2:1 complex) [2] of 6.1 and a stoichiometry N [2] of 1.

For “rhodamine-CN (calcineurin labelled with tetramethylrhodamine acceptor) (from UniProt Q08209;P63098) (complex)”, the pKd [3] was 6.40 and 6.52, the koff [3] was 9.96 s⁻¹ and the half-time of dissociation [4] was 163 ms.
